Substrate in the series: Cc1cc(=O)oc2cc(NC(=O)[C@@H](CC(=O)O)NC(=O)CCC(=O)O)ccc12
As to the kind of experiment: AMC fluorescence, kinetic plate-reader assay, initial rates. Format: biochemical, Homo sapiens. The conditions noted are these: pH 8.0, 30 °C, Tris-HCl, 150 mM NaCl.

B1: 6His-SUMO1-hLACTB (97–547) (hLACTB WT) (Homo sapiens) (protein)
chain: APPCSRCFARAIESSRDLLHRIKDEVGAPGIVVGVSVDGKEVWSEGLGYADVENRVPCKPETVMRIASISKSLTMVALAKLWEAGKLDLDIPVQHYVPEFPEKEYEGEKVSVTTRLLISHLSGIRHYEKDIKKVKEEKAYKALKMMKENVAFEQEKEGKSNEKNDFTKFKTEQENEAKCRNSKPGKKKNDFEQGELYLREKFENSIESLRLFKNDPLFFKPGSQFLYSTFGYTLLAAIVERASGCKYLDYMQKIFHDLDMLTTVQEENEPVIYNRARFYVYNKKKRLVNTPYVDNSYKWAGGGFLSTVGDLLKFGNAMLYGYQVGLFKNSNENLLPGYLKPETMVMMWTPVPNTEMSWDKEGKYAMAWGVVERKQTYGSCRKQRHYASHTGGAVGASSVLLVLPEELDTETINNKVPPRGIIVSIICNMQSVGLNSTALKIALEFDKDRSD
notes: residues 97-547 (putative catalytic domain), N-terminal 6His-SUMO1 fusion kept, expressed in Escherichia coli, Ni-NTA and size-exclusion purified
As usually defined, the Km is the concentration of substrate that gives half-maximal velocity. What is called kcat is the number of substrate molecules converted per active site and unit of time at saturation. As for B1, the Km was 25.3 ± 2.7 µM and the kcat came to 6.02 ± 0.12 s⁻¹.
